This passage reports p190B bound, percent of that bound to isoform 3A results from PMC3667722.

Test [1] deals with GST-p120-catenin isoform 4A (mouse). The test is described as follows: pull-down.
Test [2] has as its target GST-p120-catenin isoform 4A Δ560–628 (mouse). The experiment in a line: pull-down.

Chain of GST-p120-catenin isoform 4A (mouse) (P30999 whole entry, canonical isoform): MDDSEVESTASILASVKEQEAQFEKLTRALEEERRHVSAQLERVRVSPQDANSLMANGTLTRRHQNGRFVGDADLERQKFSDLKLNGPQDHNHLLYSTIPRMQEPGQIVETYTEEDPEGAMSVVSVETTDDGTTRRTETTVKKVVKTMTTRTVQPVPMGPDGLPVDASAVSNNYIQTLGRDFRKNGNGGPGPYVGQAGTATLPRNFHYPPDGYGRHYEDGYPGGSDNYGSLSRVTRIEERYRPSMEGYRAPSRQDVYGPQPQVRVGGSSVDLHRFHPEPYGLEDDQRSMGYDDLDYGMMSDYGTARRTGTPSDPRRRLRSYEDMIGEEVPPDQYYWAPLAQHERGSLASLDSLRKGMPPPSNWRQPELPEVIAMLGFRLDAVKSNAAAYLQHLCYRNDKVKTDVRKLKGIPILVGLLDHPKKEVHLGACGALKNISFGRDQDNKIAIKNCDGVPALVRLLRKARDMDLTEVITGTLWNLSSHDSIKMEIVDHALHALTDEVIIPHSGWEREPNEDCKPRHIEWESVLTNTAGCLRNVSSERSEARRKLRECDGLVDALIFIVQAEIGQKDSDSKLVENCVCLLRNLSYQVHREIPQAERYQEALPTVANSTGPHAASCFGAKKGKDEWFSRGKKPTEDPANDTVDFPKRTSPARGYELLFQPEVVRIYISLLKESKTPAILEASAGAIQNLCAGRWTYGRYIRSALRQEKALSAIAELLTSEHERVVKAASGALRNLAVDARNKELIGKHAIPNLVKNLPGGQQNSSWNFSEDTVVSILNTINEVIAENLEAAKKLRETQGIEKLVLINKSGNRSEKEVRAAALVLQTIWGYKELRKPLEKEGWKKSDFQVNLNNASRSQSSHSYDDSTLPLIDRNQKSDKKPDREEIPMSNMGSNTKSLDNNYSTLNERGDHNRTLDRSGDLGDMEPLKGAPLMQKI

Consider “p190RhoGAP-B (from UniProt Q13017 1-1502) (natural protein)”, for which the p190B bound, percent of that bound to isoform 3A was found to be 43% in test [1] and 38% in test [2].
